Data as given in article PMC11137118 (2024).

How the values were obtained:
[1] = target: all variants (mouse) of IL-22-ScFv; assay: SPR
[2] = target: hIL-22-ScFv (human IL-22 fused to a pancreas/liver targeting single chain variable fragment, linker (G4S)1) (human, UniProt Q9GZX6); assay: SPR

Kd [1]: 2.82 nM
koff [1]: 0.000872 s⁻¹
Kd [2]: 3.45 nM
koff [2]: 0.000781 s⁻¹
B1: IL-22RA1 receptor (receptor)
chain: HAPEDPSDLLQHVKFQSSNFENILTWDSGPEGTPDTVYSIEYKTYGERDWVAKKGCQRITRKSCNLTVETGNLTELYYARVTAVSAGGRSATKMTDRFSSLQHTTLKPPDVTCISKVRSIQMIVHPTPTPIRAGDGHRLTLEDIFHDLFYHLELQVNRTYQMHLGGKQREYEFFGLTPDTEFLGTIMICVPTWAKESAPYMCRVKTLPDRTWTYSFSGAFLFSMGFLVAVLCYLSYRYVTKPPAPPNSLNVQRVLTFQPLRFIQEHVLIPVFDLSGPSSLAQPVQYSQIRVSGPREPAGAPQRHSLSEITYLGQPDISILQPSNVPPPQILSPLSYAPNAAPEVGPPSYAPQVTPEAQFPFYAPQAISKVQPSSYAPQATPDSWPPSYGVCMEGSGKDSPTGTLSSPKHLRPKGQLQKEPPAGSCMLGGLSLQEVTSLAMEESQEAKSLHQPLGICTDRTSDPNVLHSGEEGTPQYLKGQLPLLSSVQIEGHPMSLPLQPPSRPCSPSDQGPSPWGLLESLVCPKDEAKSPAPETSDLEQPTELDSLFRGLALTVQWES
